Data reported in patent publication US20170349647A1.

Tests used:
[1] = target: recombinant nucleoprotein derived from influenza viruses subtype A H1N1 (Sino Biological, 11675-[change]) (influenza virus type A H1N1)
[2] = target: recombinant nucleoprotein derived from influenza viruses subtype A H3N2 (Sino Biological, 40208-[change]) (influenza virus type A H3N2)

Chain of recombinant nucleoprotein derived from influenza viruses subtype A H1N1 (Sino Biological, 11675-[change]) (influenza virus type A H1N1) (P03466 whole entry): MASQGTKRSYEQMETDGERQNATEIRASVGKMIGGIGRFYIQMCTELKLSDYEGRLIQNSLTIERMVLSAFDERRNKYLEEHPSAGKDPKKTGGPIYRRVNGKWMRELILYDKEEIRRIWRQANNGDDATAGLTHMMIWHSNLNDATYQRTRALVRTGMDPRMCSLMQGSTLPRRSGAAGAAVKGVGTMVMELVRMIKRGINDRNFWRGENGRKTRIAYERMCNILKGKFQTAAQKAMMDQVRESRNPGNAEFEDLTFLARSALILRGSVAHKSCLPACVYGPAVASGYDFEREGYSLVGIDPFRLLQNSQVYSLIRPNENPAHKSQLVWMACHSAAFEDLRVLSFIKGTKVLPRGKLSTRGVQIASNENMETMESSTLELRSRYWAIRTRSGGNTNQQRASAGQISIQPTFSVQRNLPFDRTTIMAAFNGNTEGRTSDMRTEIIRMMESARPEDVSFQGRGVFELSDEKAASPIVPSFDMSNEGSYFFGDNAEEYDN

B1: VHH antibody consisting of the amino acid sequence represented by SEQ ID NO: 08 (VHH)
VHH: QVQLVESGGGLVQAGGSLRLSCAASRTIFNPNVMGWYRQAPGKQRELVADISLSGSTNYADSVKGRFTISRDNAKNTMYLQMNSLKPEDTAVYYCNTNAISGAPGRYWGQGTQVTVSS
EC50 (read off the curve) [1]: 0.004 µg/mL
EC50 (read off the curve) [2]: 0.03 µg/mL
